This is an account of results in patent US20210130477A1.

One assay deals with hFGFR3b.mmh (human) (UniProt P22607). The assay is described as follows: SPR (Biacore) kinetics, mAb captured, hFGFR3b.mmh as analyte.
The next assay has as its target hAPLP2.mmh (human) (UniProt Q06481). The assay is described as follows: SPR (Biacore) kinetics, mAb captured, hAPLP2.mmh as analyte. (In general: SPR reads the build-up and loss of mass on a sensor chip optically.)
A further assay concerns the target hCD63.mmh (human) (UniProt P08962). The assay is described as follows: SPR (Biacore) kinetics, mAb captured, hCD63.mmh as analyte.
Assay [1] addresses human FGFR1c and human KLB co-expressed on HEK293 cells (human) (UniProt P11362). The assay is described as follows: cell-based or functional assay.
The target of another assay is hFGFR1c_V5_6×His (human) (UniProt P11362). The assay is described as follows: SPR (Biacore), antibody captured on anti-human Fc (REGN2567) CM5 chip, hFGFR1c_V5_6xHis injected, 25 C, 1:1 fit.
The next assay has as its target hKLB.HA.6×His (human) (UniProt Q86Z14). The assay is described as follows: SPR (Biacore), antibody captured on anti-human Fc (REGN2567) CM5 chip, hKLB.HA.6xHis injected, 25 C, 1:1 fit.

Chain of UniProt P11362 (P11362 22-376): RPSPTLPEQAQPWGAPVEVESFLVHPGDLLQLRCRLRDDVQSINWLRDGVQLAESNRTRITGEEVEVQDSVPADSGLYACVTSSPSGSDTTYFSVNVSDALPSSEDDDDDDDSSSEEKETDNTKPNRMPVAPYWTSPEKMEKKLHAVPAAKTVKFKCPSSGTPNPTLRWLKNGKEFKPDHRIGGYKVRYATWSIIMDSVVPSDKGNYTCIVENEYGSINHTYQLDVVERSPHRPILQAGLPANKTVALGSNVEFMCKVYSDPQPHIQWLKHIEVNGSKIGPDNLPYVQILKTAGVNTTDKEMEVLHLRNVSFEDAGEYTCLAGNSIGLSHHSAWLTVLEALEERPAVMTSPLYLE

As for REGN1945 (antibody), the 100 nM Antigen Bound (RU) is 1.8 RU with hFGFR3b.mmh (human), -0.5 RU in the assay with hAPLP2.mmh (human) and 0.5 RU with hCD63.mmh (human).
In assay [1], REGN4304 (bispecific antibody) had a % Act, SRE-luciferase reporter of 42% and an agonist activity relative to hFGF21, SRE-luciferase reporter of 30%.
As a reminder, the Kd is a measure of binding affinity in units of concentration. A lower Kd goes with tighter binding. In general, koff refers to the rate constant with which the complex falls apart. Read a high koff as fast dissociation. As a reminder, the kon is the second-order rate constant of association. Higher therefore signals fast association. With REGN4366 (bispecific antibody), in the assay with hFGFR1c_V5_6×His (human), the 100 nM Antigen Bound (RU) worked out at 50 RU, the Kd is 539 nM, the koff stood at 0.0247 s⁻¹ and the kon turned out to be 45900 M⁻¹ s⁻¹. Also, in assay [1], the % activation normalized against soluble FGF21, SRE-luciferase reporter came out at 19% and the agonist activity relative to hFGF21, SRE-luciferase reporter stood at 30%. In addition, in the assay with hKLB.HA.6×His (human), the 100 nM Antigen Bound (RU) turned out to be 411 RU, the Kd is 25.5 nM, the koff is 0.0122 s⁻¹ and the kon was determined as 476000 M⁻¹ s⁻¹.
In assay [1], “Recombinant human FGF21 with 6×His tag (from UniProt Q9NSA1 29-209) (ligand)” came in with a % Act, SRE-luciferase reporter of 100%; a % Activity of (FGF21), SRE-luciferase reporter of 100%; an EC50 (M), SRE-luciferase reporter of 3.4e-09 M.
